These results are taken from article PMC10541312 (The Journal of Experimental Medicine, 2023).

The assay addresses T1, CD123 wt ECD (amino acids 19–305), soluble protein (human, UniProt P26951 19-305, biotinylated (Biotinylation kit Type B) in the IL-3 BLI only).
T1 construct: human CD123 extracellular domain (ECD; amino acids 19–305); also called wt CD123; source: produced and purified by Icosagen
T1 sequence (looked up): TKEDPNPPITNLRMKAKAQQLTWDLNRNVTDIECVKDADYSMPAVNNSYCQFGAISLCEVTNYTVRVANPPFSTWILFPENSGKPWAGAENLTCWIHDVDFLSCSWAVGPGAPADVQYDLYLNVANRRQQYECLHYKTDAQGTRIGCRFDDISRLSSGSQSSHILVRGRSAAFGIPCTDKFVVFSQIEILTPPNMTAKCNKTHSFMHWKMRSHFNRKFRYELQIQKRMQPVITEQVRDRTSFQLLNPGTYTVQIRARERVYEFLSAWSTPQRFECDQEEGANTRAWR
The assay is described as follows: BLI; biotinylated CD123 ECD wt and variants captured on streptavidin biosensors; IL-3 as analyte, 500 to 7.8 nM in PBS pH7.4; association 300 s; steady-state analysis. Particulars: both partners purified. On the technique in general: In BLI a coated tip is dipped into the sample, and binding shifts an interference pattern.

B1: IL-3 (ligand, human, UniProt P08700 20-152, looked up)
chain: APMTQTTPLKTSWVNCSNMIDEIITHLKQPPLPLLDFNNLNGEDQDILMENNLRRPNLEAFNRAVKSLQNASAIESILKNLLPCLPLATAAPTRHPIHIKDGDWNEFRRKLTFYLKTLENAQAQQTTLSLAIF
notes: human interleukin-3, recombinant, Sino Biological PN 11858-H08H; also called interleukin-3; human IL-3; source: bought: Sino Biological (PN 11858-H08H)
On to B1, for which the binding result is reported as “binds”.
